Reference: US20220174981A1, “PROLINE TOLERANT TRIPEPTIDYL PEPTIDASES AND USES THEREOF” (DuPont Nutrition Biosciences APS, priority 2014, published 2022)
Positions count from the first letter of the chain named.

How the values were obtained:
[1] = general aminopeptidase (Pep N) of the named origin; cited from earlier work
[2] = tested on: whey protein isolate (WPI); test: 15% WPI hydrolysis at pH 6, 50° C. with endopeptidases, TRI079 and PepN; type: biochemical; details: 24 h
Method: For WPI hydrolysis, Lacprodan-9224 (Arla Food Ingredients, Denmark) was employed, a 15% (w/w) WPI suspension was prepared in H2Od and adjusted to pH 6 with sodium hydroxide. To prevent microbial growth, 0.0285% (w/w) NaN3 was added. Subsequently, 0.5% (w/w on protein substrate) Food Pro® Alkaline Protease and 0.5% (w/w on protein substrate) Food Pro® PNL was added and a volume of 200 μl of the WPI suspension was transferred into each of the 96 wells of a microtiter plate (MTP; VWR, Denmark). Following this, 5 μl of the proline tolerant tripeptidyl peptidase TRI079 containing either 0 or 2188 nkat/mL and 5 ul of PepN (described in EXAMPLE 10) containing either 0, 197 or 393 nkat/mL were added to the particular wells of the MTP. Then, the MTP was sealed and placed in an incubator at 50° C. (iEMS incubator/shaker HT, Thermo Scientific, Denmark).
After 24 h of incubation and shaking at 400 rpm, the hydrolysis was stopped by addition of 20 μl of 2 M trichloroacetic acid (TCA; Sigma-Aldrich, Denmark), except for the reference (0 h) to which the TCA was added prior to endo- and exopeptidase addition. […] The measured absorptions at 340 nm in a MTP reader (VersaMax, Molecular Devices, Denmark) were transformed into serine equivalents employing a serine calibration curve (0-2 mM).

sodium caseinate = test: 5% sodium caseinate hydrolysis with endopeptidase, TRI083 and PepN, serine equivalents; type: biochemical; details: doubling of the PepN activity from 786 to 1572 nkat/mL
H-Ala-Pro-pNA = target: T1, H-Ala-Pro-pNA (Lactobacillus helveticus, UniProt Q10730); test: X-prolyl-dipeptidyl (PepX) side-activity; type: biochemical; details: PepN applied in WPI hydrolysis
T1 construct: His-tag; made in house; host or cells: E. coli
T1 sequence (Q10730 1-844 F39I/L44F/S342A/S372G/S496N/T525I/H527L): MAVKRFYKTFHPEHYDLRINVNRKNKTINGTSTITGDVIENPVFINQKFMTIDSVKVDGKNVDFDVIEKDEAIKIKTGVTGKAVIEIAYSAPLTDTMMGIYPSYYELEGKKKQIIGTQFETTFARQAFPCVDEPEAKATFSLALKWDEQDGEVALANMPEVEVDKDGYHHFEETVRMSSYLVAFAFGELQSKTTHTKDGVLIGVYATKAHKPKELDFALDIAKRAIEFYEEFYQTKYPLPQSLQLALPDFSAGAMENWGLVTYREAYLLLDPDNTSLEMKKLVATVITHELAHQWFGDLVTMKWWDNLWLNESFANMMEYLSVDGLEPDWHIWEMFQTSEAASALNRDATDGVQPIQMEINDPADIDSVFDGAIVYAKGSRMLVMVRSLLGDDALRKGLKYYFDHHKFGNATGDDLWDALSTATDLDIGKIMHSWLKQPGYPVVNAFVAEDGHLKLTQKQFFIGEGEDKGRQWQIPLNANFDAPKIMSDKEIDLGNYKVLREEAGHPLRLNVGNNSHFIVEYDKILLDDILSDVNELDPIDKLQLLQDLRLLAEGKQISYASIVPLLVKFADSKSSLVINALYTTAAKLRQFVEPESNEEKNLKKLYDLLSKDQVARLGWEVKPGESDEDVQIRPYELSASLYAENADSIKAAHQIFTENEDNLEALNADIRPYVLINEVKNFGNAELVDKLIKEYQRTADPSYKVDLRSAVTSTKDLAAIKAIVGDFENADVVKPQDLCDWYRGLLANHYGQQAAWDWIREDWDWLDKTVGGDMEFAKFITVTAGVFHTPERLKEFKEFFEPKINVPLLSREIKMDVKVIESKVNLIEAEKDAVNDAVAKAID

H-Ala-Ala-Ala-OH = test: Pre-hydrolysis of H-Ala-Ala-Ala-OH by PepN, gas chromatography; type: biochemical; details: 24 h, 40° C., pH 4.0
Method: The inhibition experiments were set up as described in Example 14. Furthermore, 1 mg/mL H-Ala-Ala-Ala-OH (Bachem, Switzerland) was subjected to general aminopeptidase (PepN) hydrolysis for 24 h at 40° C. in 12.5 times diluted McIlvaine buffer (pH 4.0). For this, […] H-Ala-Ala-Ala-OH was dissolved in 8 mL 10 times diluted McIlvaine buffer (pH 4.0) and filled up to 10 mL with purified PepN (1,572 nkat/mL [pH 6.5]). After 24 h of hydrolysis, the PepN hydrolysis was terminated by heat inactivation of the PepN (90° C.; 10 min). The degree of pre-hydrolysis of H-Ala-Ala-Ala-OH was determined by gas chromatography (Husek, 1991; FEBS-Letters 280, 354-356). About 0.18 mg/mL alanine was measured, which corresponds to about 54% hydrolyses of the initially applied H-Ala-Ala-Ala-OH.

azocasein = test: Azocasein assay for endoprotease activity; type: biochemical; details: PepN applied in WPI hydrolysis
Method: (§1) A modified version of the endoprotease assay described by Iversen and Jørgensen, 1995 (Biotechnology Techniques 9, 573-576) is used. An enzyme sample of 50 μl is added to 250 μl of azocasein (0.25% w/v; from Sigma) in 4 times diluted McIlvaine buffer, pH 5 and incubated for 15 min at 40° C. with shaking (800 rpm). The reaction is terminated by adding 50 μl of 2 M trichloroacetic acid (TCA) (from Sigma Aldrich, Denmark) and centrifugation for 5 min at 20,000 g. To a 195 μl sample of the supernatant 65 μl of 1 M NaOH is added and absorbance at 450 nm is measured. One unit of endoprotease activity is defined as the amount which yields an increase in absorbance of 0.1 in 15 min at 40° C. at 450 nm.
as §1, with “Jorgensen,” for “Jørgensen,”, “1995” for “1995 (Biotechnology Techniques 9, 573-576)”, “TCA” for “trichloroacetic acid (TCA) (from Sigma Aldrich, Denmark)”, “C.” for “C. at 450 nm.”
Endopeptidase side-activity was measured with the azocasein as described in Example 2.

B1: PepN: recombinantly in E. coli expressed and His-tag purified general aminopeptidase (PepN) from Lactobacillus helveticus ATCC 12046 (protein, UniProt Q10730 1-844, looked up)
Aminopeptidase N: T1 sequence (Q10730 1-844 F39I/L44F/S342A/S372G/S496N/T525I/H527L) with I39F, F44L, A342S, G372S, N496S, I525T, L527H
modifications: His-tag
[1]
  Substrate Specificity: Ala, Lys, Arg, Leu, Phe, Val, Ile, and Pro
  pH-optimum: 6.5
  temp.-range: 10-50 C.
[2]; PepN 197, TRI 079 0 nkat/mL
  DH (in %) of WPI hydrolysate: 18.2%
[2]; PepN 393, TRI 079 0 nkat/mL
  DH (in %) of WPI hydrolysate: 18.8%
Sodium caseinate
  increase of serine equivalents: 10 mM
H-Ala-Pro-pNA
  X-prolyl-dipeptidyl (PepX) side-activity: free of
H-Ala-Ala-Ala-OH; 1 mg/mL H-Ala-Ala-Ala-OH
  alanine measured: About 0.18 mg/mL
H-Ala-Ala-Ala-OH
  hydrolyses of the initially applied H-Ala-Ala-Ala-OH: about 54%
azocasein
  endopeptidase side-activity: free of endopeptidase
